Reference: patent US20230365956A1 (SYSTIMMUNE, published 2023)

Key:
[1] = target: T1, SARS-CoV-2 RBD variant Kappa (L452R, E484Q) (Sino Biological) (SARS-CoV-2, UniProt P0DTC2 319-541); assay: BLI, avidity format: biotinylated RBD on SA sensor, binder in solution
T1 construct: domain: RBD

[2] = target: T2, SARS-CoV-2 RBD, wild type (Sino Biological) (SARS-CoV-2, UniProt P0DTC2 319-541); assay: as above
T2 construct: domain: RBD

[3] = target: T3, SARS-CoV-2 RBD variant Lambda (L452Q, F490S) (Sino Biological) (SARS-CoV-2, UniProt P0DTC2 319-541); assay: as above
T3 construct: domain: RBD

[4] = target: T4, SARS-CoV-2 RBD variant Delta (L452R, T478K) (Sino Biological) (SARS-CoV-2, UniProt P0DTC2 319-541); assay: as above
T4 construct: domain: RBD

[5] = target: T5, SARS-CoV-2 RBD variant Beta (K417N, E484K, N501Y) (Sino Biological) (SARS-CoV-2, UniProt P0DTC2 319-541); assay: as above
T5 construct: domain: RBD

[6] = target: T6, SARS-CoV-2 RBD variant Alpha (N501Y) (Sino Biological) (SARS-CoV-2, UniProt P0DTC2 319-541); assay: as above
T6 construct: domain: RBD

[7] = target: T7, SARS-CoV-2 RBD variant Gamma (K417T, E484K, N501Y) (Sino Biological) (SARS-CoV-2, UniProt P0DTC2 319-541); assay: as above
T7 construct: domain: RBD

[8] = target: T1, SARS-CoV-2 RBD variant Kappa (L452R, …); assay: BLI, affinity format: response at highest analyte concentration
[9] = target: T2, SARS-CoV-2 RBD, wild type (Sino …); assay: as above
[10] = target: T3, SARS-CoV-2 RBD variant Lambda (L452Q, …); assay: as above
[11] = target: T4, SARS-CoV-2 RBD variant Delta (L452R, …); assay: as above
[12] = target: T5, SARS-CoV-2 RBD variant Beta (K417N, …); assay: as above
[13] = target: T6, SARS-CoV-2 RBD variant Alpha (N501Y) …; assay: as above
[14] = target: T7, SARS-CoV-2 RBD variant Gamma (K417T, …); assay: as above
[15] = target: T1, SARS-CoV-2 RBD variant Kappa (L452R, …); assay: BLI, avidity format: response at highest analyte concentration
[16] = target: T2, SARS-CoV-2 RBD, wild type (Sino …); assay: as above
[17] = target: T3, SARS-CoV-2 RBD variant Lambda (L452Q, …); assay: as above
[18] = target: T4, SARS-CoV-2 RBD variant Delta (L452R, …); assay: as above
[19] = target: T5, SARS-CoV-2 RBD variant Beta (K417N, …); assay: as above
[20] = target: T6, SARS-CoV-2 RBD variant Alpha (N501Y) …; assay: as above
[21] = target: T7, SARS-CoV-2 RBD variant Gamma (K417T, …); assay: as above
[22] = target: T1, SARS-CoV-2 RBD variant Kappa (L452R, …); assay: BLI, affinity format: binder on AHC sensor, RBD in solution
[23] = target: T2, SARS-CoV-2 RBD, wild type (Sino …); assay: as above
[24] = target: T3, SARS-CoV-2 RBD variant Lambda (L452Q, …); assay: as above
[25] = target: T4, SARS-CoV-2 RBD variant Delta (L452R, …); assay: as above
[26] = target: T5, SARS-CoV-2 RBD variant Beta (K417N, …); assay: as above
[27] = target: T6, SARS-CoV-2 RBD variant Alpha (N501Y) …; assay: as above
[28] = target: T7, SARS-CoV-2 RBD variant Gamma (K417T, …); assay: as above

B1: Tixagevimab (antibody, V domains shown)
VH: QMQLVQSGPEVKKPGTSVKVSCKASGFTFMSSAVQWVRQARGQRLEWIGWIVIGSGNTNYAQKFQERVTITRDMSTSTAYMELSSLRSEDTAVYYCAAPYCSSISCNDGFDIWGQGTMVTVSS
VL: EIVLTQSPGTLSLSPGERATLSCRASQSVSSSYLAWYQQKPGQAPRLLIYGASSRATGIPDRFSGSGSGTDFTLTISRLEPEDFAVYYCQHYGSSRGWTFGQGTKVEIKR
[1]
  Kd: < 0.001 nM
  koff: < 1e-07 s⁻¹
  kon: 416000 M⁻¹ s⁻¹
[2]
  Kd: 0.0221 nM
  koff: 7.4e-06 s⁻¹
  kon: 335000 M⁻¹ s⁻¹
[3]
  Kd: < 0.001 nM
  koff: < 1e-07 s⁻¹
  kon: 362000 M⁻¹ s⁻¹
[4]
  Kd: 0.0303 nM
  koff: 1.28e-05 s⁻¹
  kon: 422000 M⁻¹ s⁻¹
[5]
  Kd: < 0.001 nM
  koff: < 1e-07 s⁻¹
  kon: 440000 M⁻¹ s⁻¹
[6]
  Kd: < 0.001 nM
  koff: < 1e-07 s⁻¹
  kon: 447000 M⁻¹ s⁻¹
[7]
  Kd: < 0.001 nM
  koff: < 1e-07 s⁻¹
  kon: 376000 M⁻¹ s⁻¹
[8]
  Response: 0.472 nm shift
[9]
  Response: 0.477 nm shift
[10]
  Response: 0.411 nm shift
[11]
  Response: 0.513 nm shift
[12]
  Response: 0.46 nm shift
[13]
  Response: 0.552 nm shift
[14]
  Response: 0.474 nm shift
[15]
  Response: 1.54 nm shift
[16]
  Response: 1.7 nm shift
[17]
  Response: 1.76 nm shift
[18]
  Response: 1.3 nm shift
[19]
  Response: 1.14 nm shift
[20]
  Response: 1.35 nm shift
[21]
  Response: 1.58 nm shift
[22]
  Kd: 5.21 nM
  koff: 0.00469 s⁻¹
  kon: 900000 M⁻¹ s⁻¹
[23]
  Kd: 3.63 nM
  koff: 0.00406 s⁻¹
  kon: 1.12e+06 M⁻¹ s⁻¹
[24]
  Kd: 4.31 nM
  koff: 0.00337 s⁻¹
  kon: 782000 M⁻¹ s⁻¹
[25]
  Kd: 3.83 nM
  koff: 0.0043 s⁻¹
  kon: 1.12e+06 M⁻¹ s⁻¹
[26]
  Kd: 3.24 nM
  koff: 0.00318 s⁻¹
  kon: 981000 M⁻¹ s⁻¹
[27]
  Kd: 3.17 nM
  koff: 0.0026 s⁻¹
  kon: 821000 M⁻¹ s⁻¹
[28]
  Kd: 5.83 nM
  koff: 0.00484 s⁻¹
  kon: 830000 M⁻¹ s⁻¹
